Test results reported in patent US20080213909A1, “PHARMACEUTICAL PACKAGING ASSAY” (priority 2006, published 2008).

Columns and labels:
[1] = Direct vial assay: adsorption of Cy3-labeled fibrinogen to coated Type 1 glass surfaces (fluorescence); type: physicochemical; settings: 5 μg/mL in 50 mM phosphate buffer pH 7, 4° C., 72 hours; four surfaces (FIG. 3)
Excerpt: (§1) One aspect of the invention is an assay method for the determination of drug adsorption to commercially available pharmaceutical packaging surfaces and test surfaces under development. Pharmaceutical packaging surface materials include glass, polymers (polyethylene, polypropylene, polycarbonate, polyterphalate, cylic olefin copolymer, etc.), elastomers (rubbers, etc.), metals and alloys for vials, syringes, ampoules, cartridges, stoppers, etc. and components thereof. The assay consists of the following steps: • 1) Drug of interest is labeled with a fluorescent chemical group and degree of incorporation of dye is quantified. • 2) Calibration curves of various concentrations of the fluorescently labeled biomolecules are generated. • 3) Fluorescently labeled drug solution is exposed to the pharmaceutical packaging surface of interest for a length of time ranging from minutes to years. • 4) Fluorescently labeled drug solution is removed from pharmaceutical packaging surface of interest. This solution can be analyzed to determine the amount of drugs remaining in the solution. […] Aliquots of the solution, or aliquots of the solution first concentrated, are then applied to a sample holding surface for determination of biomolecular adsorption via fluorescence measurements. […]

[2] = supplier material data; cited from earlier work
[3] = Direct vial assay: adsorption of labeled insulin to various coated surfaces (fluorescence); type: physicochemical; settings: 10 μg/mL in 50 mM phosphate buffer pH 7, 4° C., 72 hours; nine surfaces (FIG. 6)
Excerpt: as §1

| Substance | protein adsorption to sample surfaces [1] | pI [2] | protein adsorption to sample surfaces, normalized to Type 1 vial [3] |
| --- | --- | --- | --- |
| fibrinogen | quantifiable difference in protein adsorption between various sample surfaces | 5.4 |  |
| insulin: Porcine insulin from Sigma (15523), test biomolecule |  | 7.0 | quantifiable difference in protein adsorption between various sample surfaces |
